From publication PMC11417369, “DNA sequence and chromatin differentiate sequence-specific transcription factor binding in the human malaria parasite Plasmodium falciparum” come the findings set out here.

Assay in all cases: gcPBM; about 25 ug protein; PBS, 1% milk, 0.2 mg/ml BSA, salmon testes DNA, 0.03% Triton X-100
Series [1] has as its target T1, HDP1 homeodomain-like (Plasmodium falciparum, UniProt Q8IKH4 2990-3078).
T1 sequence: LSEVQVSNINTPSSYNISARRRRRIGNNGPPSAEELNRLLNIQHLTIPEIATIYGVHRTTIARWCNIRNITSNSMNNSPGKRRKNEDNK
The settings on record: tags: N-terminal GST (pGEX-4T-1), kept; chain copies: 2; label: surface-attached array probe.

Series [2] addresses AP2-I D3 (Plasmodium falciparum, UniProt Q8IJW6 910-1027). The settings on record: tags: N-terminal GST (pGEX-4T-1), kept; label: surface-attached array probe.
Series [3] has as its target T2, SIP2 D1 (Plasmodium falciparum, UniProt C6KSN9 177-235).
T2 sequence: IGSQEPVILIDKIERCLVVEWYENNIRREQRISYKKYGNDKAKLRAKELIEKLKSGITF
The settings on record: tags: N-terminal GST (pGEX-4T-1), kept; label: surface-attached array probe.

B1: GTGCAC_negctrl_site154 (dsDNA)
DNA 1: AATAGTATTCACAAAGTTTTATATAATAAATATAAA
DNA 2: TTTATATTTATTATATAAAACTTTGTGAATACTATT
Regarding B1, the binding signal in series [1] was 5.94 ln median PBM intensity, better of two orientations; in series [2] it was 6.96 ln median PBM intensity, better of two orientations.

B2: GTGCAC_negctrl_site723 (dsDNA)
DNA 1: AGCATTTTAAAAGAAAAAAAAAAAAAAAAAAAAATA
DNA 2: TATTTTTTTTTTTTTTTTTTTTTCTTTTAAAATGCT
For the molecule B2, the binding signal is 6.8 ln median PBM intensity, better of two orientations in series [3]; 5.84 ln median PBM intensity, better of two orientations in series [1]; 7.05 ln median PBM intensity, better of two orientations in series [2].

B3: GTGCAC_negctrl_site301 (dsDNA)
DNA 1: TTTATTTATTTATATTTTTTTATATAATTTATATAT
DNA 2: ATATATAAATTATATAAAAAAATATAAATAAATAAA
B3: the binding signal in series [1] was 6.28 ln median PBM intensity, better of two orientations; in series [2], 7.13 ln median PBM intensity, better of two orientations.

B4: GTGCAC_negctrl_site175 (dsDNA)
DNA 1: AAAATGTATGGAATGCTCTTTTTTAAGTATTATATA
DNA 2: TATATAATACTTAAAAAAGAGCATTCCATACATTTT
As for B4, the binding signal in series [1] was 6.2 ln median PBM intensity, better of two orientations; in series [2], 6.96 ln median PBM intensity, better of two orientations.

B5: GTGCAC_negctrl_site614 (dsDNA)
DNA 1: TATTTAGACATAACAAATAGACTAACAAAAGATTTA
DNA 2: TAAATCTTTTGTTAGTCTATTTGTTATGTCTAAATA
For the molecule B5, the binding signal was 6.13 ln median PBM intensity, better of two orientations in series [1] and 6.94 ln median PBM intensity, better of two orientations in series [2].

B6: GTGCAC_negctrl_site138 (dsDNA)
DNA 1: AAAAACAATCATTTTAAATAAAAATCTCTAATTTAA
DNA 2: TTAAATTAGAGATTTTTATTTAAAATGATTGTTTTT
For the molecule B6, the binding signal in series [1] is 5.6 ln median PBM intensity, better of two orientations; in series [2], 6.74 ln median PBM intensity, better of two orientations.

B7: GTGCAC_negctrl_site367 (dsDNA)
DNA 1: TTTTAAAAAAAAAAAAAATAAGATAAAATTAAATAA
DNA 2: TTATTTAATTTTATCTTATTTTTTTTTTTTTTAAAA
In the case of B7, the binding signal in series [3] was 6.6 ln median PBM intensity, better of two orientations; in series [1], 6.01 ln median PBM intensity, better of two orientations; in series [2], 6.89 ln median PBM intensity, better of two orientations.

B8: GTGCAC_negctrl_site528 (dsDNA)
DNA 1: AAACATCTTTACAACGTCCCTCCTTTTTTATGTACC
DNA 2: GGTACATAAAAAAGGAGGGACGTTGTAAAGATGTTT
Turning to B8, the binding signal in series [1] was 6.32 ln median PBM intensity, better of two orientations; in series [2] it was 7.28 ln median PBM intensity, better of two orientations.

B9: GTGCAC_negctrl_site305 (dsDNA)
DNA 1: ATTTATATAAAATTAAAATAATACAAATTTATTCAT
DNA 2: ATGAATAAATTTGTATTATTTTAATTTTATATAAAT
B9: the binding signal in series [1] was 6.1 ln median PBM intensity, better of two orientations; in series [2], 7 ln median PBM intensity, better of two orientations.

B10: GTGCAC_negctrl_site298 (dsDNA)
DNA 1: TTTTAACAAAACTAAATAATCATATATATAAGATAT
DNA 2: ATATCTTATATATATGATTATTTAGTTTTGTTAAAA
Turning to B10, the binding signal was 6.21 ln median PBM intensity, better of two orientations in series [1] and 6.97 ln median PBM intensity, better of two orientations in series [2].

B11: GTGCAC_negctrl_site39 (dsDNA)
DNA 1: AAACAGCATGGTATACCTATAAAATATATATACTAA
DNA 2: TTAGTATATATATTTTATAGGTATACCATGCTGTTT
Take B11: the binding signal is 6.18 ln median PBM intensity, better of two orientations in series [1] and 7.07 ln median PBM intensity, better of two orientations in series [2].

B12: GTGCAC_negctrl_site601 (dsDNA)
DNA 1: TAAGCCAAGGGATAAATAAAATAACAAAATGAAATC
DNA 2: GATTTCATTTTGTTATTTTATTTATCCCTTGGCTTA
Turning to B12, the binding signal in series [1] was 6.27 ln median PBM intensity, better of two orientations; in series [2] it was 7.02 ln median PBM intensity, better of two orientations.

B13: GTGCAC_negctrl_site553 (dsDNA)
DNA 1: GGAAAATCTAATCATTTAATATTTATTTATCTAATT
DNA 2: AATTAGATAAATAAATATTAAATGATTAGATTTTCC
For B13, the binding signal in series [3] is 6.68 ln median PBM intensity, better of two orientations; in series [1] it was 5.78 ln median PBM intensity, better of two orientations; in series [2], 6.76 ln median PBM intensity, better of two orientations.

B14: GTGCAC_negctrl_site155 (dsDNA)
DNA 1: AAATTTTTTAATTTTTCTCATTTAATTTAAAAATTA
DNA 2: TAATTTTTAAATTAAATGAGAAAAATTAAAAAATTT
For the molecule B14, the binding signal in series [1] is 5.71 ln median PBM intensity, better of two orientations; in series [2], 7.03 ln median PBM intensity, better of two orientations.

B15: GTGCAC_negctrl_site122 (dsDNA)
DNA 1: ATCTTAGTTGAAATATAGAATTTATAATAAAAGTTA
DNA 2: TAACTTTTATTATAAATTCTATATTTCAACTAAGAT
Turning to B15, the binding signal was 6.01 ln median PBM intensity, better of two orientations in series [1] and 7.07 ln median PBM intensity, better of two orientations in series [2].

B16: GTGCAC_negctrl_site472 (dsDNA)
DNA 1: TATTTAAAATAATAACAAAATTAACATAAATATATA
DNA 2: TATATATTTATGTTAATTTTGTTATTATTTTAAATA
For the molecule B16, the binding signal in series [1] was 6.24 ln median PBM intensity, better of two orientations; in series [2] it was 7.1 ln median PBM intensity, better of two orientations.
